Numbering of substitutions follows the chain as printed. Blank lines part the entries; values can stand above or below the molecule they belong to.
Key:
[1] = target: T1, human EphA4 (Homo sapiens, UniProt P54764); assay: Affinity of humanized antibodies by SPR (Biacore T200); type: binding; details: human EphA4 extracellular region-SEAP-His; for ka / kd: 1:1 binding model; for Kd: KD=kd/ka
T1 construct: made in house; not restated for the human SEAP-His protein
Experimental: The binding affinity of each anti-EphA4 monoclonal humanized antibody obtained in Example 16 for human EphA4 was determined by surface plasmon resonance (SPR) using Biacore T200 (GE Healthcare). First, for the assay of antibody A, a rat anti-mouse IgG1 antibody produced with a conventional method by immunizing rat with mouse IgG1 antibody was immobilized on sensor chip CM5. The immobilization of the rat anti-mouse IgG1 antibody on sensor chip CM5 was performed by the amine coupling method using N-hydroxysuccinimide (NHS) and N-ethyl-N′-(3-dimethylaminopropyl)carbodiimide hydrochloride (EDC). Ethanolamine was used in blocking (the sensor chip and the reagents for immobilization were all manufactured by GE Healthcare). The antibody was diluted with a buffer solution for immobilization (10 mM sodium acetate, pH 4.5) and immobilized on the sensor chip according to the protocol attached to Biacore T200. For the assay of each humanized monoclonal antibody, a protein A chip (GE Healthcare, 29-1383-03) was used. Antibody A or the humanized monoclonal antibody was diluted with a running buffer solution HBS-EP (GE Healthcare), injected onto only flow cell 2 for 120 seconds, and captured (captured amount: approximately 30 to 60 RU). Subsequently, human EphA4 extracellular region-SEAP-His protein serially diluted in the range of 50, 16.7, 5.6, 1.9, and 0.6 nM using HBS-EP was sequentially added from the lower toward higher concentration sides without regeneration operation. Binding reaction curves were sequentially observed at the time of the addition (association phase, for 120 sec) and after the completion of the addition (dissociation phase, for 900 sec). After the completion of each observation, the sensor chip was regenerated by the addition of 3 M MgCl2 (for 60 sec) or 10 mM Glycine-HCl pH 1.5 (for 30 sec). The obtained binding reaction curves were subjected to fitting analysis with 1:1 binding models using software BIA evaluation attached to the system to calculate the affinity (KD=kd/ka) for human EphA4 (Table 6).

[2] = target: T2, human EphA1 (Homo sapiens, UniProt P21709); assay: Selectivity ELISA of humanized antibodies for human Eph receptor; type: binding; details: coated protein 1 nM
T2 construct: a protein of the extracellular region of each human Eph receptor fused with the SEAP protein and the His tag; made in house; host or cells: Expi293F cells (culture supernatant)
T2 sequence (P21709 26-547 limits assumed): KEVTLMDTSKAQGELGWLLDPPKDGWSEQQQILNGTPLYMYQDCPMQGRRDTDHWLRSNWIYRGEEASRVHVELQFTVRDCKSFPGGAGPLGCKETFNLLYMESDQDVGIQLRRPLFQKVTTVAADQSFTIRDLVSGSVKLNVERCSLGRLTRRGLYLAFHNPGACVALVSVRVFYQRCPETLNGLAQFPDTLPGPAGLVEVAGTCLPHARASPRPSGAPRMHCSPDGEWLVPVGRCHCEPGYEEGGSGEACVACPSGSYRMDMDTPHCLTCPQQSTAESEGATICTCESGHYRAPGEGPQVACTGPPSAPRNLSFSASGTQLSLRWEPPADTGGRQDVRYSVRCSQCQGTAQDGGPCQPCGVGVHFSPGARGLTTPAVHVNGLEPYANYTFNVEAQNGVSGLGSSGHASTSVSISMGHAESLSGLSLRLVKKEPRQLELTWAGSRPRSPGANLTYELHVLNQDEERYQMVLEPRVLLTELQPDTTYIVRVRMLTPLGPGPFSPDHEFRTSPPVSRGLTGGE
From the text: According to the method described in Example 7, a DNA sequence encoding the signal sequence and the extracellular region of each human Eph receptor (EphA1, EphA2, EphA3, EphA4, EphA5, EphA6, EphA7, EphA8, EphA10, EphB1, EphB2, EphB3, EphB4, and EphB6) was amplified by RT-PCR using tissue-derived total RNA and cloned into a pENTR1A vector (Invitrogen/Life Technologies) having a DNA sequence encoding SEAP protein and histidine tag. Next, the DNA sequence encoding the signal sequence and the extracellular region of each human Eph receptor, SEAP protein, and histidine tag was transferred to a pcDNA3.1_rfcB vector through LR reaction using Gateway System (Invitrogen/Life Technologies) to construct a vector for the expression of a protein of the extracellular region of each human Eph receptor fused with the SEAP protein and the His tag (referred to as “Eph receptor extracellular region-SEAP-His protein”) (this vector is referred to as “Eph receptor extracellular region-SEAP-His protein expression vector”).
Next, each human Eph receptor extracellular region-SEAP-His protein expression vector was transferred to Expi293F cells (Gibco/Thermo Fisher Scientific) using Expi293 expression system (Gibco/Thermo Fisher Scientific). After incubation (5% CO2, 37° C.) for 5 days, the culture supernatant was recovered and centrifuged at 1500 rpm at room temperature for 5 minutes. The centrifugation supernatant was filtered through a 0.45-μm filter (Merck Millipore).
Each anti-EphA4 monoclonal humanized antibody obtained in Example 16 was evaluated for its binding activity against each human Eph receptor according to the following steps.
Each well of a 96-well plate (Nunc) was coated with a rabbit anti-6-His antibody (Bethyl Laboratories). Each well was […] After washing with 0.05% Tween 20/PBS (Nacalai Tesque) three times, the SEAP-His protein of human EphA1, EphA2, EphA3, EphA4, EphA5, EphA6, EphA7, EphA8, EphA10, EphB1, EphB2, EphB3, EphB4, or EphB6 was added (final concentration: 1 nM) to each well and incubated at room temperature for 1 hour. After washing three times, the humanized antibody was added to each well and incubated at room temperature for 1 hour. After washing three times, a horseradish peroxidase-labeled donkey […] IgG antibody (Jackson ImmunoResearch Laboratories) was added thereto and incubated at room temperature for 1 hour. After washing three times, TMB Microwell Peroxidase Substrate System (Kirkegaard & Perry Laboratories (KPL)) was added to each well. After confirmation of moderate color development, an equal amount of a reaction stopping solution (1N H2SO4, Wako Pure Chemical Industries) was added to each well. The absorbance at 450 nm was read using a microplate reader (Thermo Fisher Scientific).

T1 sequence (P54764 20-547): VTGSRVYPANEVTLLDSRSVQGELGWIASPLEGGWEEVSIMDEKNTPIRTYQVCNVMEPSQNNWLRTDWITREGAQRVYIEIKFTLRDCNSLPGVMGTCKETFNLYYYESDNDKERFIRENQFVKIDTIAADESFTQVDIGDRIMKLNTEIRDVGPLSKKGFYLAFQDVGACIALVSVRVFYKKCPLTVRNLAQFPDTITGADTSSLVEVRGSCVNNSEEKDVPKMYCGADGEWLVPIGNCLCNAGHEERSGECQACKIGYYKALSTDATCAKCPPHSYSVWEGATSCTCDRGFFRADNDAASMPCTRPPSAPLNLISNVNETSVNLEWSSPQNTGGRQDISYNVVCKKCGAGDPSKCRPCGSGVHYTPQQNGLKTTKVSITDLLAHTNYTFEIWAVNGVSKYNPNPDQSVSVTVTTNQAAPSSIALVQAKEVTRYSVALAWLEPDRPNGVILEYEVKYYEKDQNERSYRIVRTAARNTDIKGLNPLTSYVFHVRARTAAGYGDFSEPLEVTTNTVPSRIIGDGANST

B3: 91 (antibody, V domains shown)
VL: DIQMTQSPSSLSASVGDRVTITCRASENIYRNLAWYQQKPGKAPQLLLYAATNLADGVPSRFSGSGSGTDYTLTISSLQPEDFATYYCQHFWGTPWTFGQGTKVEIK
VH: QVQLVQSGSELKKPGASVKVSCKASGYTFTDYSMHWVRQAPGQGLKWMGWINTETGEPTYADDFKGRFVFSLDTSVSTAYLQISSLKAEDTAVYYCARIPLYYYGSRYWYFDVWGQGTTVTVSS
modifications: constant regions without entry; synthetic humanized antibody light chain variable region sequence; synthetic humanized antibody heavy chain variable region sequence
- ka [1]: 330000 M⁻¹ s⁻¹
- kd [1]: 0.00044 s⁻¹
- Kd [1]: 1.3 nM
- hEphA1-SEAP-: absorbance at 450 nm, percentage with respect to hEphA4-SEAP-His as 100% [2]: 5.8%

B4: 89 (antibody, V domains shown)
VL: B3 VL
VH: B3 VH with V2I, D62Q, D63G, K65T
modifications: constant regions without entry; synthetic humanized antibody light chain variable region sequence; synthetic humanized antibody heavy chain variable region sequence
- ka [1]: 310000 M⁻¹ s⁻¹
- kd [1]: 0.00041 s⁻¹
- Kd [1]: 1.3 nM
- hEphA1-SEAP-: absorbance at 450 nm, percentage with respect to hEphA4-SEAP-His as 100% [2]: 5.5%

B5: 90 (antibody, V domains shown)
VL: B3 VL
VH: B3 VH with K46E
modifications: constant regions without entry; synthetic humanized antibody light chain variable region sequence; synthetic humanized antibody heavy chain variable region sequence
- ka [1]: 360000 M⁻¹ s⁻¹
- kd [1]: 0.00055 s⁻¹
- Kd [1]: 1.5 nM
- hEphA1-SEAP-: absorbance at 450 nm, percentage with respect to hEphA4-SEAP-His as 100% [2]: 5.1%

B8: 92 (antibody, V domains shown)
VL: B3 VL
VH: B3 VH with V2I
modifications: constant regions without entry; synthetic humanized antibody light chain variable region sequence; synthetic humanized antibody heavy chain variable region sequence
- ka [1]: 330000 M⁻¹ s⁻¹
- kd [1]: 0.00043 s⁻¹
- Kd [1]: 1.3 nM
- hEphA1-SEAP-: absorbance at 450 nm, percentage with respect to hEphA4-SEAP-His as 100% [2]: 7.0%

More lines, in order of falling Kd [1], values ahead:

- ka [1]: 310000 M⁻¹ s⁻¹
- kd [1]: 0.00046 s⁻¹
- Kd [1]: 1.5 nM
- hEphA1-SEAP-: absorbance at 450 nm, percentage with respect to hEphA4-SEAP-His as 100% [2]: 5.9%
B1: 86 (antibody, V domains shown)
VL: B3 VL with Q45K, P80S
VH: B3 VH with V2I
modifications: constant regions without entry; synthetic humanized antibody light chain variable region sequence; synthetic humanized antibody heavy chain variable region sequence

- ka [1]: 350000 M⁻¹ s⁻¹
- kd [1]: 0.00051 s⁻¹
- Kd [1]: 1.5 nM
- hEphA1-SEAP-: absorbance at 450 nm, percentage with respect to hEphA4-SEAP-His as 100% [2]: 5.3%
B2: 87 (antibody, V domains shown)
VL: B3 VL
VH: B3 VH with K46E, D62Q, D63G, K65T
modifications: constant regions without entry; synthetic humanized antibody light chain variable region sequence; synthetic humanized antibody heavy chain variable region sequence

- ka [1]: 300000 M⁻¹ s⁻¹
- kd [1]: 0.00042 s⁻¹
- Kd [1]: 1.4 nM
- hEphA1-SEAP-: absorbance at 450 nm, percentage with respect to hEphA4-SEAP-His as 100% [2]: 5.8%
B9: 88 (antibody, V domains shown)
VL: B3 VL
VH: B3 VH with D62Q, D63G, K65T
modifications: constant regions without entry; synthetic humanized antibody light chain variable region sequence; synthetic humanized antibody heavy chain variable region sequence

- ka [1]: 260000 M⁻¹ s⁻¹
- kd [1]: 0.00024 s⁻¹
- Kd [1]: 0.95 nM
- hEphA1-SEAP-: absorbance at 450 nm, percentage with respect to hEphA4-SEAP-His as 100% [2]: 6.5%
B7: 94 (antibody, V domains shown)
VL: EIVMTQSPATLSVSPGERATLSCRASENIYRNLAWYQQKPGQSPRLLIYAATNLADGIPARFSGSGSGTEYTLTISSLQSEDFAVYYCQHFWGTPWTFGQGTKVEIK
VH: B3 VH with D62Q, D63G, K65T
modifications: constant regions without entry; synthetic humanized antibody light chain variable region sequence; synthetic humanized antibody heavy chain variable region sequence

- ka [1]: 310000 M⁻¹ s⁻¹
- kd [1]: 0.00024 s⁻¹
- Kd [1]: 0.77 nM
- hEphA1-SEAP-: absorbance at 450 nm, percentage with respect to hEphA4-SEAP-His as 100% [2]: 5.0%
B6: 93 (antibody, V domains shown)
VL: B7 VL
VH: B3 VH with K46E, D62Q, D63G, K65T
modifications: constant regions without entry; synthetic humanized antibody light chain variable region sequence; synthetic humanized antibody heavy chain variable region sequence
